# Measurements as given in patent publication US20050079151A1, “Therapeutic agents for apoptosis-related diseases” (priority 1998, published 2005).
# B1: MK: midkine, a heparin-binding growth and differentiation factor; human MK protein (SEQ ID NO: 3; or recombinant, secreted by yeast) (protein, UniProt P21741 21-143, looked up)
# Midkine: VAKKKDKVKKGGPGSECAEWAWGPCTPSSKDCGVGFREGTCGAQTQRIRCRVPCNWKKEFGADCKYKFENWGACDGGTGTKVRQGTLKKARYNAQCQETIRVTKPCTPKTKAKAKAKKGKGKD
# Legend:
# [1] = tested on: renal uriniferous tubule cells; experiment: Inhibitory effect on cisplatin-induced apoptosis in renal uriniferous tubule cells of MK knockout mice; assay type: in vivo, mouse
# Description: Heterozygous 129/Sv knockout mice (male, 8- to 12-week old) in which parts of exons 2 and 3 of the MK gene were destroyed (Biochemistry 7, 1996, Volume 68, pp. 1239, 4-p-1244) were divided into two groups; the saline administration group and the MK administration groups (14 individuals each). As a control group, the untreated wild-type mice (four individuals) were prepared. Dosage of MK was 200 μg/kg and that of saline was 10 ml/kg.
# MK or saline was intraperitoneally administered to the mice in two groups in the morning and cisplatin 9.3 mg/kg was intraperitoneally administered to the mice in two groups in the afternoon of the same day (this day is Day 0).
# In the morning of Day 1, MK or saline was interperitoneally administered to each mouse in the same manner as on […].
# On Day 2, four mice were selected from each group (the untreated wild-type mice group and the two treated groups) to collect urine and whole blood. Clots in the collected blood were retracted for 1 hour at 37° C., and centrifuged (4° C., 8000 rpm, 10 min) to separate the serum. […]
# Blood urea nitrogen (BUN) and serum creatinine frequently used as indexes of renal dysfunction in day-to-day diagnosis were measured and proteins in urine were simply quantified. […]
# On Day 4, DNA fragmentation in the kidney paraffin sections representating strong damage was analyzed by the TUNEL method (In situ Apoptosis Detection Kit; TaKaRa).
# [2] = tested on: G401 cell lines derived from Wilms tumor; experiment: Inhibitory effect on apoptosis induced by a carcinostatic (MTT method); assay type: cell-based; conditions: MK 1, 10 or 100 ng/mL + cisplatin 100 μM, 12 hour culture, compared with the cisplatin treated group
# Description: Apoptosis was induced in G401 cell lines derived from Wilms tumor, infantile renal cancer, by a carcinostatic to examine the apoptosis-inhibitory effect of MK by the MTT method.
# Five groups were prepared; the untreated group, the cisplatin (100 μM) treated group, and the MK (1, 10 or 100 ng/mL)+cisplatin treated groups.
# G401 cells were suspended in the Dulbecco Modified Eagle Medium containing 10% fetal bovine serum (FBS) (10% FBS/DMEM) and seeded into a 96-well plate at 5000 cells/well. The plate was incubated in a CO2 incubator (37° C., 5% CO2; the same shall apply hereinbelow) so that the cells could attach to the plate.
# The cells were washed with DMEM containing 0.1% FBS (0.1% FBS/DMEM) twice (hereafter, 0.1% FBS/DMEM was used for washing unless otherwise indicated), and cultured in 0.1% FBS/DMEM overnight. After culturing, MK was added to the MK treated groups at 1, 10 or 100 ng/ml. Each group was cultured for 6 hours. Six μl of 0.5 mg/ml cisplatin (100 μM) (Bristol-Myers Squib Company; Tokyo) was added to the cisplatin treated groups. Each group was cultured in 0.1% FBS/DMEM for 2 hours. […]
# Fifteen μl of MTT reagent (5 mg/ml) (Wako Pure Chemical Laboratories; Osaka) were added to each well of the above-mentioned five groups and cultured for 4 hours. […] Absorbance (OD540-655) in each well was measured using a microplate reader.
# [3] = tested on: hippocampal neurocytes; experiment: Apoptosis-inhibitory effect in vivo, transient forebrain ischemia, MK administration after the ischemic injury; parameters: species or system Mongolian gerbil; conditions: counted seven days after injury
# Description: MK (2.0 μg) was injected into the ventricle of a Mongolian gerbil transient forebrain ischemia model 2, 4, 6, 12, or 24 hours after the ischemic injury. The numbers of surviving hippocampal neurocytes were counted seven days after the ischemic injury (FIG. 16). When MK was administered at 2 hours after the injury, the number of surviving neurocytes decreased, compared to the Sham-op group, while it was considerably higher than the saline administrated group.
# The numbers of surviving hippocampal neurocytes in the groups administered 2, 4, 6, 12, or 24 hours after the ligation were 120±36 (n=4), 90±23 (n=6), 80±13 (n=6), 86±34 (n=6), and 93±22 (n=4) cells/mm, respectively (FIG. 16).
molecule,measurement,setting,value
B1,number of TUNEL positive cells in kidney paraffin sections,"[1]; Day 4, MK 200 μg/kg i.p., cisplatin 9.3 mg/kg i.p., versus saline administrated group",significantly decreased
same,"renal dysfunction caused by cisplatin (BUN, serum creatinine, urine protein, HE sections)","[1]; MK 200 μg/kg i.p. daily, cisplatin 9.3 mg/kg i.p. on Day 0",effect of MK for relieving renal dysfunction caused by cisplatin was observed
same,"numbers of the surviving cells (MTT, absorbance OD540-655)",[2],increased numbers of the surviving cells in an MK concentration-dependent manner
same,numbers of surviving hippocampal neurocytes,[3]; MK 2.0 μg into the ventricle 2 hours after the ligation,120±36 cells/mm
same,numbers of surviving hippocampal neurocytes,[3]; MK 2.0 μg into the ventricle 4 hours after the ligation,90±23 cells/mm
same,numbers of surviving hippocampal neurocytes,[3]; MK 2.0 μg into the ventricle 6 hours after the ligation,80±13 cells/mm
same,numbers of surviving hippocampal neurocytes,[3]; MK 2.0 μg into the ventricle 12 hours after the ligation,86±34 cells/mm
same,numbers of surviving hippocampal neurocytes,[3]; MK 2.0 μg into the ventricle 24 hours after the ligation,93±22 cells/mm
